Broadly, the Km is the substrate concentration at which the rate is half of its maximum.

For one experiment, the target named is T1, PAK4 (Homo sapiens, UniProt Q9NQU5).
T1 construct: made in house; host or cells: 293 cells (transient transfection, immunopurified) or bacteria (GST fusion)
The experiment can be described thus: In vitro kinase assay, activation loop peptide as PAK4 substrate. The class given is biochemical. As to the method:
(§1) Three days after transfection with the STE20-related kinase expression contructs, a 10 cm plate of 293 cells was washed with PBS and solubilized on ice with 2 mL PBSTDS containing phosphatase inhibitors (10 mM NaHPO4, pH 7.25, 150 mM NaCl, 1% Triton X-100, 0.5% deoxycholate, 0.1% SDS, 0.2% sodium azide, 1 mM NaF, 1 mM EGTA, 4 mM sodium orthovanadate, 1% aprotinin, 5 μg/mL leupeptin). Cell debris was removed by centrifugation (12000× g, 15 min, 4° C.) and the lysate was precleared by two successive incubations with 50 μL of a 1:1 slurry of protein A sepharose for 1 hour each. One-half mL of the cleared supernatant was reacted with 10 μL of protein A purified kinase-specific antisera (generated from the GST fusion protein or antipeptide antisera) plus 50 μL of a 1:1 slurry of protein A-sepharose for 2 hr at 4° C. The beads were then washed 2 times in PBSTDS, and 2 times in HNTG (20 mM HEPES, pH 7.5/150 mM NaCl, 0,1% Triton X-100, 10% glycerol).
The immunopurified kinases on sepharose beads were resuspended in 20 μL HNTG plus 30 mM MgCl2, 10 mM MnCl2, and 20 μCi […] (3000 Ci/mmol). The kinase reactions were run for 30 min at room temperature, and stopped by addition of HNTG supplemented with 50 mM EDTA. The samples were washed 6 times in HNTG, boiled 5 min in SDS sample buffer and analyzed by 6% SDS-PAGE followed by autoradiography. […]

A further experiment concerns the target T2, PAK5 (Homo sapiens, UniProt O96013).
T2 construct: made in house; host or cells: 293 cells (transient transfection, immunopurified on protein A sepharose) or bacteria (GST fusion)
The experiment can be described thus: In vitro kinase assay, activation loop peptides as PAK5 substrates. It is filed as biochemical. To be noted: for substrate: peptide substrates at 2.5 μM. As to the method:
as §1
The immunopurified kinases on sepharose beads were resuspended in 20 μL HNTG plus 30 mM MgCl2, 10 mM MnCl2, and 20 μCi […] (3000 Ci/mmol). The kinase reactions were run for 30 min at room temperature, and stopped by addition of HNTG supplemented with 50 mM EDTA. The samples were washed 6 times in HNTG, boiled 5 min in SDS sample buffer and analyzed by 6% SDS-PAGE followed by autoradiography. Phosphoamino acid analysis was performed by standard 2D methods on ^32P-labeled bands excised from the SDS-PAGE gel.
Similar assays were performed on bacterially expressed GST-fusion constructs of the kinases.
20 mM Hepes pH 7.2, 130 mM KCl, 10 mM MgCl2, 1 mM NaF, 20 mM B-glycerolphosphate, 0.5 mM DTT, 50 μM ATP, 0.5 μCi ^32PyATP.
Substrates: MBP at 0.28 mg/mL and peptide substrates derived from PAK5 activation loop at 2.5 μM.
To aid in the development of in vitro kinase assays for screening small molecule libraries to identify specific inhibitors, the search for specific peptide substrates for PAK5 was undertaken.
The rationale used to design such peptides is based on the hypothesis that upon binding activated small G protein, PAK5 undergoes a conformational change that results in derepression of its kinase activity followed by autophosphorylation on the activation loop resulting in a fully active kinase. The site of autophosphorylation for related family members has been identified by biochemical and/or genetic means (e.g. Wu, C, et al. J.Biol.Chem 270:15984-15992 and Szczepanowska, et al. Proc.Natl.Acad.Sci 94, 8503-8508, 1997). Specific peptide substrates for PAKS were designed from the sequence of the activation loop of this kinase.

Where no end group is shown, it is not given here.

T2 sequence (O96013 whole entry, the tested form may be a part): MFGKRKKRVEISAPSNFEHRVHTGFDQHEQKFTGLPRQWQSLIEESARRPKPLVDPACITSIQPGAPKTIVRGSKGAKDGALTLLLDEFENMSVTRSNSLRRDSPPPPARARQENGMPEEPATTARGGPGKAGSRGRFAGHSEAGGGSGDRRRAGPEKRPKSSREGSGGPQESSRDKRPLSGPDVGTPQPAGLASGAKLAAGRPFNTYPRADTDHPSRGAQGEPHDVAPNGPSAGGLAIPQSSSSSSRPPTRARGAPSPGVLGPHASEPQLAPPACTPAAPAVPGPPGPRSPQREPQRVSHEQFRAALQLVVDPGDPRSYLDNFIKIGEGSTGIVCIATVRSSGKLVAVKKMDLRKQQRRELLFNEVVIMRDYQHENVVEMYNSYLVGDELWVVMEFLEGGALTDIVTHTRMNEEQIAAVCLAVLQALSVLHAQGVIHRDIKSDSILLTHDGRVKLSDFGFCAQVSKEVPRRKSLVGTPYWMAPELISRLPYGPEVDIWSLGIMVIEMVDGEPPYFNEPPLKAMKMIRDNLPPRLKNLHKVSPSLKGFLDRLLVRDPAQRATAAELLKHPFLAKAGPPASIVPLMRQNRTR
T1 sequence (Q9NQU5 whole entry, the tested form may be a part): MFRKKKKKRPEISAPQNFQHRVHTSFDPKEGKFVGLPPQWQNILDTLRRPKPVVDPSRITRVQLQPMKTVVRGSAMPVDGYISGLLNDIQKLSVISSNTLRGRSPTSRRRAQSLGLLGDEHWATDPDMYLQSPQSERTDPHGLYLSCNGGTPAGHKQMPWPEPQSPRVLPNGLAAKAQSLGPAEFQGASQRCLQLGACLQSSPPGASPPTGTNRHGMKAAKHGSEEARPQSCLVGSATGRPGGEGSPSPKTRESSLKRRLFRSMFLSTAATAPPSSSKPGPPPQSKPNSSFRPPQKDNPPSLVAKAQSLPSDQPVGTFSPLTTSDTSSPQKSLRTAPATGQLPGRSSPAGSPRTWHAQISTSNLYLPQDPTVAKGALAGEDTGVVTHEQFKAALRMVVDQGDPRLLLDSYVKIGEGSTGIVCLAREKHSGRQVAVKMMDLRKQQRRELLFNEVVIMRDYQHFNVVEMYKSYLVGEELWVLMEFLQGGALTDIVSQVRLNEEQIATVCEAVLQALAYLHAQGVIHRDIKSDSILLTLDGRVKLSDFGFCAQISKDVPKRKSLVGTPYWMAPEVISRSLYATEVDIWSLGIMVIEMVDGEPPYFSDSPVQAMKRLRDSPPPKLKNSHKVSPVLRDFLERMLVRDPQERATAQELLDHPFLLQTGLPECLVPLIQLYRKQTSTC

For the substance “(C) RRKSLVGTPYWMAPE (CRRKSLVGTPYWMAPE; N-terminal cysteine) [Peptide 10]”, in the experiment with PAK4, the “Notes: Km for PAK4 compared with PAK5” value is on record as “Same Km as phosph. by PAK5” and the substrate entry is “yes”.
“(C) RRKSLVGTPYWMAPE [1] (CRRKSLVGTPYWMAPE; N-terminal cysteine) [Peptide 1]”: in the experiment with PAK5, the “Notes: substrate quality relative to MBP or other peptides” value is listed as “Equally well as MBB” and the substrate result is recorded as “yes”.
In the case of “(C) RRKSLVGTPYWMAPE [2] (CRRKSLVGTPYWMAPE; also: phosphorylated residue) [Peptide 2, phosphorylated residue marking not visible]”, the Km with PAK5 (Notes column) fell in the range of 1 to 10 µM. The substrate result with PAK5 is “yes”.
“(C) RRKSLVGTPYWMAPE [3] (CRRKSLVGTPYWMAPE; also: phosphorylated residue) [Peptide 3, phosphorylated residue marking not visible]”: the substrate entry in the experiment with PAK5 was “no”.
In the case of KRKSFIGTPYWMAPE [Peptide 4], in the experiment with PAK5, the “Notes: substrate quality relative to MBP or other peptides” value was “Similiar to peptide 1” and the substrate entry is “yes”.
Consider KRNTFVGTPFWMAPE [Peptide 5], for which, in the experiment with PAK5, the substrate entry is “poor”.
Still for that read-out and setting: the result for PANSFVGTPYWMAPE [Peptide 6] reads “poor”; that for RNKVRKTFVGTPCWMAPE [Peptide 9], “poor”.
For “RRNTFIGTPYWMAPE (also: phosphorylated residue) [Peptide 8, phosphorylated residue marking not visible]”, the “Notes: substrate quality relative to MBP or other peptides” value in the experiment with PAK5 was “Better than 7”.
For RRNTFIGTPYWMAPE [Peptide 7], the substrate entry with PAK5 was “poor”.

These data come from patent publication US6680170B2, “Polynucleotides encoding STE20-related protein kinases and methods of use” (Sugen, Inc., priority 1998, dated 2004).
